Measured values as given in article PMC8099640, “Collagen IV^α345 dysfunction in glomerular basement membrane diseases. III. A functional framework for α345 hexamer assembly” (The Journal of Biological Chemistry, 2021).

What was measured:
[1] = target: recombinant α345 miniprotomer (human) (UniProt Q01955); assay: atomic force microscopy; miniprotomer 1 to 2 μg/ml deposited on mica from buffer with chloride, imaged dry, AC tapping mode in air
[2] = target: the molecule itself; assay: SEC; NC1 monomers alone or in equimolar mixture, 2 mg/ml in 25-mM Tris acetic acid buffer pH 7.5, NaCl added (150 mM), 24 h at 37 °C; Superdex 200 Increase 10/300GL in TBS; hexamer peak blotted with α3, α4 and α5 NC1-specific mAbs

“recombinant α345 miniprotomer (from UniProt Q01955 29-1670; P53420 39-1690; P29400 27-1685) (complex)” gave a stoichiometry N [1] of 2.

B1: recombinant human collagen IV α5 NC1 monomer (domain or fragment, UniProt P29400 1461-1685, looked up)
chain: GFLITRHSQTTDAPQCPQGTLQVYEGFSLLYVQGNKRAHGQDLGTAGSCLRRFSTMPFMFCNINNVCNFASRNDYSYWLSTPEPMPMSMQPLKGQSIQPFISRCAVCEAPAVVIAVHSQTIQIPHCPQGWDSLWIGYSFMMHTSAGAEGSGQALASPGSCLEEFRSAPFIECHGRGTCNYYANSYSFWLATVDVSDMFSKPQSETLKAGDLRTRISRCQVCMKRT
notes: collagen IV α5 chain, NC1 domain, human; amplified by PCR from a human kidney cDNA library; Secreted by means of the BM-40 signal peptide of the vector (derivative of pRc-CMV)
For B1, the “stoichiometry N” value [2] was 6.
